Source: US20130055470

B1: AtTR1 protein (protein)
chain: MADHLSLCTDRLITSESLDSEKDSDSSGESSYRPQGTDLASSSVNETEVPREYYAVADEEEPLLQSVECRICQEEDSTKNLEAPCACNGSLKYAHRKCVQRWCNEKGDITCEICHQPYQHGYTAPPPPPPDETIIHIGDDWENGVPLDLTDPRILAMAAAERHFLEADYDEYSENNSSGAAFCRSAALILMALLLLRDALNLTTNPDDEDDPTAFFSLFLLRAAGFLLPCYIMAWAIGILQRRRQRQEAAALAAAEVTFMIHGGGPQRRGLHFAVAPQPPISNVPTPV
B2: OsTR1-1 protein (protein)
chain: MGDHVAVDVGGLMASRGAGEEETGALIGMVECRICQEEDLAKNLESPCACSGSLKYAHRECVQRWCNEKGDIICEICHVSYKPGYTAPPQVHHDETTIEISSGDWSISGNRLDLHDPRILAMAAAQHRLLEDEYDEYTATNNNAAAFCRSIFLILMALLLLRHTLTITSSDDEDDASAIFSLFLLRAAGFLLPCYIMAWAISIMQRQRQRQEEAMLLPTEVAIILHRNGRTMQFAVAPESPTTPHPEQGQ
B3: ZmTR1 protein (protein)
chain: MAGDDHVVVDVNGLAKSKDDGGSKKLSEDANGSAPAAASLSAAVDLVQEEEEEEGDGEEQPLIQAAECRICQEEDSVKNLEKPCACSGSLKYAHRACVQRWCNEKGDTTCEICHEEYKPGYTAPPRVQPDETTIDIDGDLVMDLRDPRILAVAAAQHRLLEAEYDGYASTDASGAAFCRSAALILMALLLLRHALSMSDNEGNDDDASTIFSLFLLRAAGFLLPCYIMAWIFSILHRRRQRQEEAALAAAEVAFILQSARGRALQFAIAPDSPATPQHEPVSQQQQ

Target: ubiquitin

Protein | E3 ubiquitin ligase activity (in vitro ubiquitination reaction, anti-Ub Western blot)
B1 | multiple bands occurred in the lane with the addition of E1, E2, ATP and Ub, while no band occurred in the control
B2 | multiple bands occurred in the lane with the addition of E1, E2, ATP and Ub, while no band occurred in the control
B3 | multiple bands occurred in the lane with the addition of E1, E2, ATP and Ub, while no band occurred in the control
